Entries after “also recorded” stand apart in the source; their conditions may differ. The star is where a group is joined. Biotin = O=C1N[C@H]2[C@H](CS[C@H]2CCCCC(=O)*)N1
B3: DMC1 (untagged full-length human DMC1, wild type) (natural protein, UniProt Q14565 1-340, looked up)
chain: MKEDQVVAEEPGFQDEEESLFQDIDLLQKHGINVADIKKLKSVGICTIKGIQMTTRRALCNVKGLSEAKVDKIKEAANKLIEPGFLTAFEYSEKRKMVFHITTGSQEFDKLLGGGIESMAITEAFGEFRTGKTQLSHTLCVTAQLPGAGGYPGGKIIFIDTENTFRPDRLRDIADRFNVDHDAVLDNVLYARAYTSEHQMELLDYVAAKFHEEAGIFKLLIIDSIMALFRVDFSGRGELAERQQKLAQMLSRLQKISEEYNVAVFVTNQMTADPGATMTFQADPKKPIGGHILAHASTTRISLRKGRGELRIAKIYDSPEMPENEATFAITAGGIGDAKE

Assays:
DMC1 [1] = molecular target: T1, DMC1 (Homo sapiens, UniProt Q14565); assay: Biolayer interferometry; assay type: binding; conditions: immobilized biotinylated peptide, DMC1 concentration of 5 μM, 25°C
T1 sequence (Q14565 1-340): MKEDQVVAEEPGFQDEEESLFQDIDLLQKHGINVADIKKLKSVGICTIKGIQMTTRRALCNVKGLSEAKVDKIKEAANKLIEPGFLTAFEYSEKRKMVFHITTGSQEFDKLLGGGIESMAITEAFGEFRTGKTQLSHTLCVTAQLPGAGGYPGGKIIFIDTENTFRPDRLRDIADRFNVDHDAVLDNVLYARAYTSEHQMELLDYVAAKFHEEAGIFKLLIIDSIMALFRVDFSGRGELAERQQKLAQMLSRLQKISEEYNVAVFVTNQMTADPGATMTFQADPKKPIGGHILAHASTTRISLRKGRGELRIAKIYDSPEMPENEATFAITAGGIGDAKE

DMC1–ssDNA filaments = assay: Electrophoretic mobility shift assay; assay type: binding, human; conditions: EMSA, 2 μM DMC1, 2 μM PhePP F2s3, 90 nt ssDNA, Ca-ATP, 30 min 37°C
[2] = molecular target: B3; assay: ITC
DMC1 [3] = molecular target: T2, DMC1 (human, UniProt Q14565 1-340); assay: EMSA
T2 sequence: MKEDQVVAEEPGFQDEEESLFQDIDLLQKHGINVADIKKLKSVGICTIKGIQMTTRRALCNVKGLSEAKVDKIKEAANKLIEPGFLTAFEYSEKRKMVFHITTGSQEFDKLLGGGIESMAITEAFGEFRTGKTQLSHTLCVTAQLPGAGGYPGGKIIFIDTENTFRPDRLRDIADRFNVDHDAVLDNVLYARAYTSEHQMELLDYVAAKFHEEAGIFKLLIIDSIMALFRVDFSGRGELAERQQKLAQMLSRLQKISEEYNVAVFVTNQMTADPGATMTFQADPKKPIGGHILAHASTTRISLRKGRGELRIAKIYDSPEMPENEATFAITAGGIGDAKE

DMC1 F89A = molecular target: T3, DMC1 F89A (human, UniProt Q14565 1-340, F89A); assay: EMSA
T3 sequence: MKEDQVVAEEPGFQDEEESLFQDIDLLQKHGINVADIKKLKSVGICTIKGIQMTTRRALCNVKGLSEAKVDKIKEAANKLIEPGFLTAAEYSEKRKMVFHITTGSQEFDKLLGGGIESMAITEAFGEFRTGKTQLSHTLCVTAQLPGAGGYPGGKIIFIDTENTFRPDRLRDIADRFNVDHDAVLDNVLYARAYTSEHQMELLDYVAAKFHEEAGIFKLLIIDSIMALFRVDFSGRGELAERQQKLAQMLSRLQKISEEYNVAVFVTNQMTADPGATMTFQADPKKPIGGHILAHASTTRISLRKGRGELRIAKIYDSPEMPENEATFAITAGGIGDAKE

DMC1;BRCA2 F2s3 (PhePP) = molecular target: T4, DMC1;BRCA2 F2s3 (PhePP) (human;human, UniProt Q14565;P51587 1-340;2379-2433, |); assay: EMSA
T4 sequence 1: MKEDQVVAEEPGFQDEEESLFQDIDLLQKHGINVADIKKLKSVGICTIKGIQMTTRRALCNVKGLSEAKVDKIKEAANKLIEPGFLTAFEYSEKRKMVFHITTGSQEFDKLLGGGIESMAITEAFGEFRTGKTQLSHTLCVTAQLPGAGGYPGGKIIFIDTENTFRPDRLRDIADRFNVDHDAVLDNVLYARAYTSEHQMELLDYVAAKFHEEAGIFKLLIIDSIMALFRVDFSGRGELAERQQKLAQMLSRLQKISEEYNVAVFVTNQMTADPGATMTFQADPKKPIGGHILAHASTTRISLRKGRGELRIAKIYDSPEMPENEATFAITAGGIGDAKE
T4 sequence 2: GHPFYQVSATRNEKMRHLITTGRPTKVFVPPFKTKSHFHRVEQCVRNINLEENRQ

crystal structure = molecular target: the molecule itself; assay: crystal structure
[4] = molecular target: B3; assay: BLI
[5] = molecular target: B3; assay: pull-down
[6] = molecular target: B3; assay: BLI; remark: listed apart in the source

“Biotin-GSG-VSPAAQKAFQPPRSSGTKYE-NH2 [TR2]” was tested, and the “binding to DMC1 detected by BLI” value (DMC1 [1]) was “No binding was detected; also recorded: no interaction could be detected”.

In the case of “Biotin-GSG-SNHSFGGSFRTASNKEIKLSEHNIKKSKMFFKDIEE-NH2 [BRC1, reference compound]”, the “binding to DMC1 detected by BLI” value (DMC1 [1]) is reported as “No binding was detected; also recorded: no interaction could be detected”.

With “F2s3: purified bacterially expressed BRCA2 fragment 2379–2433 containing the PhePP motif” the “effect on electrophoretic mobility of the DMC1–ssDNA complex” value (DMC1–ssDNA filaments) was “reduced electrophoretic mobility”.

For “Biotin-GSG-TTGRPTKVAVPPFKTKSHFH-NH2 [PhePPmut]”, the “binding to DMC1 detected by BLI” value (DMC1 [1]) was “No binding was detected”.

B1: BRCA2 F2s3 (2379–2433), purified recombinant peptide (domain or fragment, human, UniProt P51587 2379-2433, looked up)
chain: GHPFYQVSATRNEKMRHLITTGRPTKVFVPPFKTKSHFHRVEQCVRNINLEENRQ
Work on B1 yielded a Kd [2] of 3 ± 0.5 µM.

B2: AF-647-SK3-90 ssDNA (ssDNA)
DNA: AATTCTCATTTTACTTACCGGACGCTATTAGCAGTGGCAGATTGTACTGAGAGTGCACCATATGCGGTGTGAAATACCGCACAGATGCGT
B2: binds (DMC1 [3]); binds (DMC1 F89A); binds (DMC1;BRCA2 F2s3 (PhePP)).

For B3, the “stoichiometry N” value (crystal structure) was 8.

Biotin-GSGTTGRPTKVFVPPFKTKSHFH-NH2 [biotinylated BRCA2 F2s6 peptide (Biotin-GSG-F2s6-NH2)] showed a Kd [4] of about 0.001 µM.

B4: GST-tagged BRCA2 F2 (2351–2479), wild type (domain or fragment, human, UniProt P51587 2351-2479, looked up)
chain: APGQEFLSKSHLYEHLTLEKSSSNLAVSGHPFYQVSATRNEKMRHLITTGRPTKVFVPPFKTKSHFHRVEQCVRNINLEENRQKQNIDGHGSDDSKNKINDNEIHQFNKNNSNQAVAVTFTKCEEEPLD
B4: binds [5].

B5: GST-tagged BRCA2 F2s3 K2404A (domain or fragment, human, UniProt P51587 2379-2433, looked up)
chain: GHPFYQVSATRNEKMRHLITTGRPTAVFVPPFKTKSHFHRVEQCVRNINLEENRQ
B5: binds [5].

Molecule Biotin-GSGRSRGILGKFVPPIPKQDGGE-NH2 [biotinylated FIGNL1 P-motif peptide] has a Kd [4] of about 16.2 µM.

With Biotin-GSGSAESKKPKWVPPAASGGSRS-NH2 [biotinylated RAD51AP1 P-motif peptide] the Kd [4] was about 1.6 µM.

B6: GST-tagged BRCA2 F2s3 R2401A (domain or fragment, human, UniProt P51587 2379-2433, looked up)
chain: GHPFYQVSATRNEKMRHLITTGAPTKVFVPPFKTKSHFHRVEQCVRNINLEENRQ
B6: binds [5].

B7: GST-tagged BRCA2 F2 K2404A (domain or fragment, human, UniProt P51587 2351-2479, looked up)
chain: APGQEFLSKSHLYEHLTLEKSSSNLAVSGHPFYQVSATRNEKMRHLITTGRPTAVFVPPFKTKSHFHRVEQCVRNINLEENRQKQNIDGHGSDDSKNKINDNEIHQFNKNNSNQAVAVTFTKCEEEPLD
B7: binds [5].

B8: GST-tagged BRCA2 F2 R2401A (domain or fragment, human, UniProt P51587 2351-2479, looked up)
chain: APGQEFLSKSHLYEHLTLEKSSSNLAVSGHPFYQVSATRNEKMRHLITTGAPTKVFVPPFKTKSHFHRVEQCVRNINLEENRQKQNIDGHGSDDSKNKINDNEIHQFNKNNSNQAVAVTFTKCEEEPLD
B8: binds [5].

In the case of Ac-TTGRPTKVFVPPFKTKSHFH-NH2 [BRCA2 F2s6 (2398–2417) synthetic peptide], the Kd [2] is reported as 3.4 ± 1.3 µM and the Kd [6] is reported as 2.1 ± 0.5 µM.

— publication PMC11229353 (Nucleic Acids Research, 2024)
